Key:
cyclin D1 [1] = biological target: T1, cyclin D1 (mouse, UniProt P25322 1-295); assay: GST pull-down of 35S-labelled in vitro translated cyclin
T1 construct: 35S-labelled in vitro translation product in the pull-down; baculovirus product in Sf9 cells
Method: (§1) Because DMP1 interacted with cyclin D2 in yeast, the ability of a glutathione S-transferase (GST)-DMP1 fusion protein to bind D-type cyclins in vitro is examined. GST is fused to residues 176-761 of DMP1 (in lieu of GAL4 in the original cDNA clone), and the bacterially synthesized recombinant protein is incubated with [³⁵S]methionine-labeled D-type cyclins prepared by transcription and translation in vitro. As a positive control, GST-RB which can specifically bind D-type cyclins in this assay is used (15). Bound cyclins recovered on washed glutathione-Sepharose beads are analyzed by electrophoresis on denaturing gels. […] GST-DMP1 is less efficient than GST-RB in binding cyclins D2 and D3 (˜4-fold less binding), and under these conditions, an interaction with D1 is not detected (lanes 3, 7, 11). No labeled proteins bind to GST alone (lanes 4, 8, 12), and neither cyclin A nor cyclin E bind to GST-RB or to GST-DMP1. A cyclin D2 mutant disrupted in an amino-terminal Leu-X-Cys-X-Glu pentapeptide that is required for high efficiency GST-RB binding is not detectably compromised in its interaction with GST-DMP1 (negative data not shown); in agreement, DMP1 bears no homology to RB or to RB-related family members (p107 and p130).

cyclin D3 = biological target: T2, cyclin D3 (mouse, UniProt P30282 1-292); assay: GST pull-down of 35S-labelled in vitro translated cyclin on glutathione-Sepharose, gel autoradiography
T2 construct: 35S-labelled in vitro translation product in the pull-down; baculovirus product in Sf9 cells
T2 sequence (looked up): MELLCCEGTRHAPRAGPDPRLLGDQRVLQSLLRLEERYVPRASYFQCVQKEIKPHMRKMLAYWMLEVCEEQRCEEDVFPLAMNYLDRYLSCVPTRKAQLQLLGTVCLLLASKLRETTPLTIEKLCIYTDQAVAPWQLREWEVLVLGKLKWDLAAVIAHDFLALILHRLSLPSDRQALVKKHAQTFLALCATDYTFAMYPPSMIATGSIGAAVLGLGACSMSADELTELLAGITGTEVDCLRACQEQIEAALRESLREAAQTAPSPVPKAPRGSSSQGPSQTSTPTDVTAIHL
Method: as §1

cyclin D2 = biological target: T3, cyclin D2 (mouse, UniProt P30280 1-289); assay: as above
T3 construct: 35S-labelled in vitro translation product in the pull-down; baculovirus product in Sf9 cells
T3 sequence (P30280 whole entry): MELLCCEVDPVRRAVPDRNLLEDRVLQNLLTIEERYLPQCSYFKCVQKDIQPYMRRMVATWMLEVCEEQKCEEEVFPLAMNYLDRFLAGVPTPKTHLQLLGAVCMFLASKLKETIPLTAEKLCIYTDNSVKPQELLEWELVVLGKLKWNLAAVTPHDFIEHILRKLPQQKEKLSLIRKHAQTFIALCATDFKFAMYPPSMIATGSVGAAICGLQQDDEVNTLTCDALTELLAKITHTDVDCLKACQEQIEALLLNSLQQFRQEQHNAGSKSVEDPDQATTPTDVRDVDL
Method: as §1

cyclin D1 [2] = biological target: T1, cyclin D1; assay: anti-Flag immunoprecipitation from Sf9 lysates, Western blot for cyclin D1
Source text: The series of DMP1 deletion mutants and the K319E point mutant were then used to determine the cyclin D binding domain of DMP1. Expression vectors encoding murine wild-type DMP1, the corresponding deletion mutations, or K319E (i. e., wildtype DMP1 and M1-M11, defined in FIG. 10, Table 1) were cotransfected with an expression vector encoding cyclin D1 into SF9 cells. Wildtype DMP1 and M1-M11 were expressed containing Flag-tags. SF9 lysates were immunoprecipitated with an antibody raised against the Flag-tag. The immunoprecipitates were resolved individually by gel electrophoresis, and then Western blotted with an antibody raised against cyclin D1. […] Therefore, the cyclin D1 binding domain is missing in the M9 deletion mutant. […] Therefore, deletion of the N-terminal domain of DMP1 (i.e., amino acids 1-223) abrogates its ability to interact with D-type cyclins, and thus, the region of DMP1 from residues 1-223 contains a specific cyclin D interaction motif required for D-type cyclin-DMP1 association.

cyclin D2-DMP1 complex = biological target: T4, cyclin D2-DMP1 complex (mouse, UniProt P30280 1-289); assay: coinfected Sf9 cells, immunoprecipitation with antiserum to DMP1
T4 construct: Complex formed in coinfected Sf9 cells
T4 sequence (P30280 whole entry, one chain of several): as the sequence (P30280 whole entry) above

T1 sequence (P25322 whole entry): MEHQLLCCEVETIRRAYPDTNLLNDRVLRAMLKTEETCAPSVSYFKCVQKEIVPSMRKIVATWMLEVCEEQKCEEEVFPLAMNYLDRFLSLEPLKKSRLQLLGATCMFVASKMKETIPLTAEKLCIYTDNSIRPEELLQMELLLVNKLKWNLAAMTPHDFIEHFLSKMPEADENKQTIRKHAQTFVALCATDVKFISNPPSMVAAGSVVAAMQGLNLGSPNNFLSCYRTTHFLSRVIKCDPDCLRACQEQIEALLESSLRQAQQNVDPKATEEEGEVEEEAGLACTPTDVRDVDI

B1: GST-DMP1 fusion protein (GST fused to residues 176-761 of DMP1) (other)
chain: GIKDATEIIFEMSKDERKDFYRTIAWGLNRPLFAVYRRVLRMYDDRNHVGKYTPEEIEKLKELRIKHGNDWATIGAALGRSASSVKDRCRLMKDTCNTGKWTEEEEKRLAEVVHELTSTEPGDIVTQGVSWAAVAERVGTRSEKQCRSKWLNYLNWKQSGGTEWTKEDEINLILRIAELDVADENDINWDLLAEGWSSVRSPQWLRSKWWTIKRQIANHKDVSFPVLIKGLKQLHENQKNNPVLLENKSGSGVPNSNCNSSVQHVQIRVARLEDNTAISPSPMAALQIPVQITHVSSTDSPAASADSETITLNSGTLQTFEILPSFPLQPTGTPGTYLLQTSSSQGLPLTLTTNPTLTLAAAAPASPEQIIVHALSPEHLLNTSDNVTVQCHTPRVIIQTVATEDITSSLSQEELTVDSDLHSSDFPEPPDALEADTFPDEIPRPKMTIQPSFNNAHVSKFSDQNSTELMNSVMVRTEEEIADTDLKQEEPPSDLASAYVTEDLESPTIVHQVHQTIDDETILIVPSPHGFIQASDVIDTESVLPLTTLTDPIFQHHQEASNIIGSSLGSPVSEDSKDVEDLVNCH
notes: Made in bacteria, held on glutathione-Sepharose beads; not shown: glutathione S-transferase encoded by pGEX-3X (Pharmacia)
In the case of B1, the binding result (cyclin D1 [1]) is reported as “no binding”, the “fold less binding than GST-RB” value (cyclin D3) is reported as ~4 fold less binding than GST-RB and the “fold less binding than GST-RB” value (cyclin D2) is reported as ~4 fold less binding than GST-RB.

B2: Flag-tagged DMP1 deletion mutant M9 (amino acids 234-761) (other)
chain: KLKELRIKHGNDWATIGAALGRSASSVKDRCRLMKDTCNTGKWTEEEEKRLAEVVHELTSTEPGDIVTQGVSWAAVAERVGTRSEKQCRSKWLNYLNWKQSGGTEWTKEDEINLILRIAELDVADENDINWDLLAEGWSSVRSPQWLRSKWWTIKRQIANHKDVSFPVLIKGLKQLHENQKNNPVLLENKSGSGVPNSNCNSSVQHVQIRVARLEDNTAISPSPMAALQIPVQITHVSSTDSPAASADSETITLNSGTLQTFEILPSFPLQPTGTPGTYLLQTSSSQGLPLTLTTNPTLTLAAAAPASPEQIIVHALSPEHLLNTSDNVTVQCHTPRVIIQTVATEDITSSLSQEELTVDSDLHSSDFPEPPDALEADTFPDEIPRPKMTIQPSFNNAHVSKFSDQNSTELMNSVMVRTEEEIADTDLKQEEPPSDLASAYVTEDLESPTIVHQVHQTIDDETILIVPSPHGFIQASDVIDTESVLPLTTLTDPIFQHHQEASNIIGSSLGSPVSEDSKDVEDLVNCH
notes: not shown: Flag-tag
B2: no binding (cyclin D1 [2]).

B3: catalytically inactive CDK4 mutant (enzyme, mouse, UniProt P30285 1-303, looked up)
chain: MAATRYEPVAEIGVGAYGTVYKARDPHSGHFVALMSVRVPNGGAAGGGLPVSTVREVALLRRLEAFEHPNVVRLMDVCATSRTDRDIKVTLVFEHIDQDLRTYLDKAPPPGLPVETIKDLMRQFLSGLDFLHANCIVHRDLKPENILVTSNGTVKLADFGLARIYSYQMALTPVVVTLWYRAPEVLLQSTYATPVDMWSVGCIFAEMFRRKPLFCGNSEADQLGKIFDLIGLPPEDDWPREVSLPRGAFAPRGPRPVQSVVPEMEESGAQLLLEMLTFNPHKRISAFRALQHSYLHKEESDAE
notes: also called mutant CDK4
B3: no binding (cyclin D2-DMP1 complex).

— patent US20030028002A1, “Cyclin D binding factor, and uses thereof” (published 2003)
